In patent publication US20070054328A1 (published 2007):

Tests used:
[1] = biological target: T1, endogenous PTPL1 (Protein Tyrosine Phosphatase Like-Protein-1) of 293 cells (human, UniProt Q12923 1-2485, limits assumed); experiment: GST pull-down from 293 cells; pNPP phosphatase assay and anti-PTPL1 immunoblot
T1 construct: also called FAP-1; endogenously expressed PTPL1
Procedure: Rates or amounts of para-nitrophenol production were calculated using a standard curve generated from known amounts of para-nitrophenol. For the insulin receptor peptide assay a 50 μl reaction was set up containing 20 mM Tris pH7.4, 150 mM NaCl, 1 mM DTT, 20 μM of the tyrosine-phosphorylated peptide and 100 ng of GST-PTPL1. After 10 min at room temperature, the reactions were terminated by the addition of 0.1 ml of BIOMOL green reagent and after an additional 20 min the amount of phosphate liberated was quantitated by absorbance at 620 nm and measured against inorganic phosphate standards. In all assays we ensured that the rate of para-nitrophenol formation or the dephosphorylation of the insulin receptor peptide, was linear with time.
Immunoblotting. For blots of total cell lysates or tissues 20 μg of protein was used. For the purified GST fusion proteins to detect association of endogenous PTPL1, 10 μg of fusion protein was employed for the PTPL1 blots and 0.1 μg for the GST blots. Samples were subjected to SDS/PAGE and transferred to nitrocellulose. […]

[2] = biological target: T1, endogenous PTPL1 (Protein Tyrosine …); experiment: cell-based or functional assay

T1 sequence (Q12923 whole entry): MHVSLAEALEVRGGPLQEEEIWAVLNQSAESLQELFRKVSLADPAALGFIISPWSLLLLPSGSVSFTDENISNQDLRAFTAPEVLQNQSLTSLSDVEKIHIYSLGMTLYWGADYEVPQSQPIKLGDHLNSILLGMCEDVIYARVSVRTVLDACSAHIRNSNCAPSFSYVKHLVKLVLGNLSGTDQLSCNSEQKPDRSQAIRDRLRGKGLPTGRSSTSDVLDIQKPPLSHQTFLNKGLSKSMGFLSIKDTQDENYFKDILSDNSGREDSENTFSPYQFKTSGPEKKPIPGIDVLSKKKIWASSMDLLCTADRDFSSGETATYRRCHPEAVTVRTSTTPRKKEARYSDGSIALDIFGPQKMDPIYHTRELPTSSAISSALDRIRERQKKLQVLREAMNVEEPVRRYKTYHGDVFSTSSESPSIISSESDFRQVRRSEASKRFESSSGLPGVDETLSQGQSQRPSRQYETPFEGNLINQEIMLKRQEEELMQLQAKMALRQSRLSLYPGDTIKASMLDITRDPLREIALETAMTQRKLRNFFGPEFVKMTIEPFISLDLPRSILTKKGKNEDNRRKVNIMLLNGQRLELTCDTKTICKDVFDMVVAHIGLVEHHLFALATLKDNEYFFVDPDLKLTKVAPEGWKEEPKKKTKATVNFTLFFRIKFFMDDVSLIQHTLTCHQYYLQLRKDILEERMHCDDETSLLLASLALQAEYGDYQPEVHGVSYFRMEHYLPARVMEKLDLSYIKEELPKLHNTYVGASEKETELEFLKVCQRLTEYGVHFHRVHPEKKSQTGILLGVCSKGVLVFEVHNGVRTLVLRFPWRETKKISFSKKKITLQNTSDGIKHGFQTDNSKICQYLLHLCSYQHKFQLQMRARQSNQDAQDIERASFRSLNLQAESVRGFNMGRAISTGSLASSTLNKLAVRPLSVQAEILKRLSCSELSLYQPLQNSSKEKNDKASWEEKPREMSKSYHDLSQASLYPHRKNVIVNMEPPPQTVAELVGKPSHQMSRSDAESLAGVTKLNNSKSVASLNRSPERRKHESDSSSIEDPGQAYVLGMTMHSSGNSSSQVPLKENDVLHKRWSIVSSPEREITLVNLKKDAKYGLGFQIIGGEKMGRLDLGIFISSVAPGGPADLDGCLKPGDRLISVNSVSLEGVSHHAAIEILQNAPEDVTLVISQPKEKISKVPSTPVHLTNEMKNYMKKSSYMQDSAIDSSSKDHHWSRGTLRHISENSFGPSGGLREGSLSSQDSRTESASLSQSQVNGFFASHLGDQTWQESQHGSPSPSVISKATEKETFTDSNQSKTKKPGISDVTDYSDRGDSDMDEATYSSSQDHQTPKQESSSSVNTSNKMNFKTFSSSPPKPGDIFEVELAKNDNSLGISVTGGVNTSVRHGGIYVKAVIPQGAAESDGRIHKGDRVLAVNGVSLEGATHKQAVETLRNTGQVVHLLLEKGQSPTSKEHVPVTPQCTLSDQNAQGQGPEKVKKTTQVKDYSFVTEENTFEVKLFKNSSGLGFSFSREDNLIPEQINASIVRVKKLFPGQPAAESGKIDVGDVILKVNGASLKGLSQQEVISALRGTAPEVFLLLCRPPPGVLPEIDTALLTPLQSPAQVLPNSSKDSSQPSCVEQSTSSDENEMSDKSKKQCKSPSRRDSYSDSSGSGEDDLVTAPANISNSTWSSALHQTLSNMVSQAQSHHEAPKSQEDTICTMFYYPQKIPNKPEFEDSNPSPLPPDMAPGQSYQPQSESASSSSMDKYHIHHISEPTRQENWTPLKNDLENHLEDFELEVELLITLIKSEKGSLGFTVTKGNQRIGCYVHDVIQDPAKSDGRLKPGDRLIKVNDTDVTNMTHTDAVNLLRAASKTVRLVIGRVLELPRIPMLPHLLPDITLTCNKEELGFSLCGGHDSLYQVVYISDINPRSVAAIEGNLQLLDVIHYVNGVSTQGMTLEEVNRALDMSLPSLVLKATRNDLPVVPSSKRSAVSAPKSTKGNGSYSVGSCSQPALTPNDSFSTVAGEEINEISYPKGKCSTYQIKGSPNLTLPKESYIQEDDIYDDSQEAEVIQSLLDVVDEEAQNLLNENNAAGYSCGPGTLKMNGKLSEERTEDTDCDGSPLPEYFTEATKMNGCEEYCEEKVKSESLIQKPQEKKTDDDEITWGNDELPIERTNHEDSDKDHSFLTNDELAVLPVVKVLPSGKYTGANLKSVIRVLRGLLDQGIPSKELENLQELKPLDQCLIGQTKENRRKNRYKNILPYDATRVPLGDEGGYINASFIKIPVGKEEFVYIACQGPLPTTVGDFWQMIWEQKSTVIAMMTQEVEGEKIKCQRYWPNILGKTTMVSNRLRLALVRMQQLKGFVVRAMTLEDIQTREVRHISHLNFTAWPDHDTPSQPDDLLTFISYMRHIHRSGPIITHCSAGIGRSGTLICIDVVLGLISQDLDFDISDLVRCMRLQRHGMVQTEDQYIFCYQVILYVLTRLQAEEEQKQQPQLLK

B1: GST-DAPP1 (other, UniProt Q9UN19 1-280, looked up)
chain: MGRAELLEGKMSTQDPSDLWSRSDGEAELLQDLGWYHGNLTRHAAEALLLSNGCDGSYLLRDSNETTGLYSLSVRAKDSVKHFHVEYTGYSFKFGFNEFSSLKDFVKHFANQPLIGSETGTLMVLKHPYPRKVEEPSIYESVRVHTAMQTGRTEDDLVPTAPSLGTKEGYLTKQGGLVKTWKTRWFTLHRNELKYFKDQMSPEPIRILDLTECSAVQFDYSQERVNCFCLVFPFRTFYLCAKTGVEADEWIKILRWKLSQIRKQLNQGEGTIRSRSFIFK
notes: Control GST fusion expressed in 293 cells; also called dual adaptor for phosphotyrosine and 3-phosphoinositides; not shown: N-terminal glutathione S-transferase (GST) tag
B1: no binding [1].

B2: endogenous TAPP1 of 293 cells (other, human, UniProt Q9HB21 1-404, looked up)
chain: MPYVDRQNRICGFLDIEENENSGKFLRRYFILDTREDSFVWYMDNPQNLPSGSSRVGAIKLTYISKVSDATKLRPKAEFCFVMNAGMRKYFLQANDQQDLVEWVNVLNKAIKITVPKQSDSQPNSDNLSRHGECGKKQVSYRTDIVGGVPIITPTQKEEVNECGESIDRNNLKRSQSHLPYFTPKPPQDSAVIKAGYCVKQGAVMKNWKRRYFQLDENTIGYFKSELEKEPLRVIPLKEVHKVQECKQSDIMMRDNLFEIVTTSRTFYVQADSPEEMHSWIKAVSGAIVAQRGPGRSASSEHPPGPSESKHAFRPTNAATATSHSTASRSNSLVSTFTMEKRGFYESLAKVKPGNFKVQTVSPREPASKVTEQALLRPQSKNGPQEKDCDLVDLDDASLPVSDV
In the case of B2, the “pNPP phosphatase activity immunoprecipitated with the anti-PTPL1 antibody compared with the TAPP1 antibody” value [2] is reported as roughly 6 fold.

B3: GST-FAPP1 (other, UniProt Q9HB20 1-300, looked up)
chain: MEGVLYKWTNYLTGWQPRWFVLDNGILSYYDSQDDVCKGSKGSIKMAVCEIKVHSADNTRMELIIPGEQHFYMKAVNAAERQRWLVALGSSKACLTDTRTKKEKEISETSESLKTKMSELRLYCDLLMQQVHTIQEFVHHDENHSSPSAENMNEASSLLSATCNTFITTLEECVKIANAKFKPEMFQLHHPDPLVSPVSPSPVQMMKRSVSHPGSCSSERSSHSIKEPVSTLHRLSQRRRRTYSDTDSCSDIPLEDPDRPVHCSKNTLNGDLASATIPEESRLMAKKQSESEDTLPSFSS
notes: Control GST fusion expressed in 293 cells; not shown: N-terminal glutathione S-transferase (GST) tag
B3: no binding [1].
